The values that follow come from US12037395 (IMMVIRA, dated 2024).

Assay [1] addresses T1, biotin-labeled human PD-1 Fc protein (human, biotin-labeled (sites not given)).
T1 construct: also called PD-1-Fc-biotin
In words: competition ELISA: blocks biotin PD-1-Fc binding to coated PD-L1-Fc. The protocol:
(§1) The next day, plates were washed with wash buffer (PBS+0.05% Tween-20, PBST), and blocked with 5% non-fatty milk in PBST for 2 hours at 37° C. Plates were then washed again using wash buffer.
(§2) After incubation at 37° C. for 40 minutes, plates were washed for 4 times using wash buffer. […] Plates were washed again using wash buffer. Finally, TMB was added and the reaction was stopped using 1M H_2SO_4, and the absorbance was read at 450 nm. Data were analyzed using Graphpad Prism software and $IC50$ values were reported.
(An ELISA detects its analyte on a solid surface through an enzyme-linked reagent.)

In assay [2] the target is T1, biotin-labeled human PD-1 Fc protein. In words: capture ELISA: antibody captured by anti-IgG Fc, biotin PD-1-Fc 60 nM.
Assay [3] addresses T2, cynomolgus monkey PD-1-his protein (Acro biosystems, #PD-1-C5223) (cynomolgus monkey, UniProt B0LAJ3 25-170).
T2 construct: Bought protein; also called Cynomolgus PD-1; Cynomolgus PD1
In words: SPR (Biacore T200), antibody captured, antigen flowed. From the text:
(§3) Briefly, goat […] (GE healthcare, Cat #BR100839, Human Antibody Capture Kit) was covalently linked to a CM5 chip (carboxy methyl dextran coated chip) via primary amines, using a standard amine coupling kit (GE healthcare, Pittsburgh, PA, USA) provided by Biacore. Unreacted moieties on the biosensor surface were blocked with ethanolamine. […] Then, recombinant human PD-1-his (Sino biological, #10377-H08H) or cynomolgus monkey PD-1-his protein (Acro biosystems, #PD-1-C5223) in HBS EP buffer (provided by Biacore) was flowed onto the chip at a flow rate of 30 μL/min. The antigen-antibody association kinetics was followed for 2 minutes and the dissociation kinetics was followed for 10 minutes. The association and dissociation curves were fit to a 1:1 *Langmuir* binding model using BIA evaluation software.

Assay [4] has as its target T3, recombinant human PD-1-his (Sino biological, #10377-H08H) (human, UniProt Q15116 25-167).
T3 construct: Bought protein; also called Human PD-1-his protein; not shown: his tag
Described as above.
From the text: as §3

Assay [5] addresses T4, human PD-1 on PD-1 Effector Cell Line (Genscript, GS-J2/PD-1) (human, UniProt Q15116 25-288). In words: cell-based or functional assay.
The target in assay [6] is T1, biotin-labeled human PD-1 Fc protein. In words: competition ELISA: blocks biotin PD-1-Fc binding to coated Nivolumab (competitor); partial blocking. The protocol:
(§4) The next day, plates were washed with wash buffer, and blocked with 5% non-fatty milk in PBST for 2 hours at 37° C. […] Plates were finally washed using wash buffer. TMB was added and the reaction was stopped using 1M H_2SO_4, and the absorbance was read at 450 nm. Data were analyzed using Graphpad Prism software and $IC50$ values were reported.

In assay [7] the target is T3, recombinant human PD-1-his (Sino …). In words: SPR (Biacore) as in Example 2. A general note: Surface plasmon resonance follows binding to a sensor surface in real time, without labels.
In assay [8] the target is T2, cynomolgus monkey PD-1-his protein …. In words: SPR (Biacore).
Assay [9] has as its target T3, recombinant human PD-1-his (Sino …). In words: SPR (Biacore).
Assay [10] deals with T1, biotin-labeled human PD-1 Fc protein. In words: benchmark blocking ELISA (coated Nivolumab as competitor). The protocol: as §4
The target is the same in assay [11]. In words: binding capture ELISA, biotin PD-1-Fc.
For assay [12], the target named is T4, human PD-1 on PD-1 Effector Cell Line …. In words: cell-based or functional assay. The source holds these as a separate data set.
For assay [13], the target named is T1, biotin-labeled human PD-1 Fc protein. In words: PD1/PDL1 ligand blocking ELISA (coated PD-L1-Fc).
For assay [14] the target is unchanged. In words: binding capture ELISA (goat anti-human IgG Fab capture), biotin PD-1-Fc.
Assay [15] shares this target. In words: benchmark blocking ELISA (coated Nivolumab, self-competition).
Assay [16] shares this target. In words: PD1/PDL1 ligand blocking ELISA (coated PD-L1-Fc). The protocol: as §1, §2
This is another data set of the same source.

For assay [17] the target is unchanged. In words: benchmark blocking ELISA (coated Nivolumab, self-competition). This is another data set of the same source.
For assay [18] the target is unchanged. In words: competition ELISA: blocks biotin PD-1-Fc binding to coated Nivolumab (self-competition).
Assay [19] has the same target. In words: capture binding ELISA, biotin PD-1-Fc.

B1: mouse anti-PD-1 monoclonal antibody 2G2 (antibody, mouse IgG1, kappa, V domains shown)
VH: EVQLVESGGDLVKPGGSLKLSCTASGFTFSYYGMSWVRQTPDKRLEWVATISSGSSFTYSPDSVKGRFTISRDNAKNTLYLQMNSLKSEDTAIYYCTRREGIYDASWDYSMDYWGQGTSVTVSS
VL: DVLMTQTPLSLPVSLGDQASISCRSSQSIIRSNGNTYLEWYLQKPGQSPKLLIYKVSNRFSGVPDRFSGSGSGTDFTLKISRVEADDLGLYYCFQGSHVPWTFGGGTKLEIKR
notes: Purified from hybridoma; Constant regions tied only generically to 'mouse antibodies'; also called Clone 2G2
Take B1: the IC50 (commonly the midpoint of a concentration-inhibition curve) in [1] amounted to 0.32 nM. The EC50 (commonly the concentration giving half of the maximal effect) in assay [2] is 0.18 nM. Also, in assay [3], the Kd (commonly the concentration at which binding is half-saturated) was determined as 13 nM; the dissociation rate constant (koff) (in general, the rate constant with which the complex falls apart) is 0.00183 s⁻¹; the kon (as a rule, the rate constant with which the complex forms) stood at 140000 M⁻¹ s⁻¹. Also, in [4], the Kd came to 2.68 nM, the off-rate (koff) turned out to be 0.000436 s⁻¹ and the kon amounted to 163000 M⁻¹ s⁻¹. For the same molecule, the “Reporter Activation (EC50, nM) human PD-1 cell (NFAT-luc)/human PD-L1 cell” value in [5] is 17.9 nM. The molecule also showed an IC50 in assay [6] of 14.4 nM.

B2: humanized anti-PD-1 antibody huC1E1-V1 (antibody, human IgG1, kappa)
heavy: not shown
light: EIVLTQSPATLSLSPGERATLSCRASKSVDDSGISFMHWFQQKPGQPPRLLIYAASNQGSGVPARFSGSGSGTDFTLTISSLEPEDFAVYFCHQTKEVPWTFGQGTKVEIKRTVAAPSVFIFPPSDEQLKSGTASVVCLLNNFYPREAKVQWKVDNALQSGNSQESVTEQDSKDSTYSLSSTLTLSKADYEKHKVYACEVTHQGLSSPVTKSFNRGEC
notes: Human IgG1/kappa, expressed in 293F cells
Turning to B2, the Kd in assay [7] came out at 3.88 nM.

B3: humanized anti-PD-1 antibody huC1E1-V4 (antibody, human IgG1, kappa, V domains shown)
VH: EVQLVESGGGVVQPGRSLRLSCAASGFTFSSYLMSWVRQAPGKGLEWVATISGGGGDTYFPDSVKGRFTISRDNSKNTLYLQMNSLRAEDTAVYYCVRFGGAGYYWYFDVWGAGTLVTVSS
VL: EIVLTQSPATLSLSPGERATLSCRASKSVDDSGISFMHWFQQKPGQAPRLLIYAASNQGSGVPARFSGSGSGTDFTLTISSLEPEDFAVYFCHQTKEVPWTFGQGTKVEIKR
notes: as for B2
For B3, in assay [7], the dissociation constant Kd came to 2.95 nM.

B4: humanized anti-PD-1 antibody huC1E1-V3 (antibody, human IgG1, kappa, V domains shown)
VH: EVQLVESGGGVVQPGRSLRLSCAASGFTFSSYLMSWVRQAPGKGLEWVATISGGGGDTYFPDSVKGRFTISRDNSKNTLYLQMNSLRAEDTAVYYCVRFGGAGYYWYFDVWGAGTLVTVSS
VL: EIVLTQSPATLSLSPGERATLSCRASKSVDDSGISFMHWYQQKPGQPPRLLIYAASNQGSGVPARFSGSGSGTDFTLTISSLEPEDFAVYFCHQTKEVPWTFGQGTKVEIKR
notes: as for B2
As to B4, the Kd in assay [7] stood at 4.52 nM.

B5: humanized anti-PD-1 antibody huC1E1-V7 (antibody, human IgG1, kappa)
heavy: not shown
light: EIVLTQSPATLSLSPGERATLSCRASKSVDDSGISFMHWYQQKPGQAPRLLIYAASNQGSGIPARFSGSGSGTDFTLTISSLEPEDFAVYYCHQTKEVPWTFGQGTKVEIKRTVAAPSVFIFPPSDEQLKSGTASVVCLLNNFYPREAKVQWKVDNALQSGNSQESVTEQDSKDSTYSLSSTLTLSKADYEKHKVYACEVTHQGLSSPVTKSFNRGEC
notes: as for B2
B5: the Kd in assay [7] turned out to be 6.36 nM.

B6: humanized anti-PD-1 antibody huC1E1-V5 (antibody, human IgG1, kappa, V domains shown)
VH: EVQLVESGGGVVQPGRSLRLSCAASGFTFSSYLMSWVRQAPGKGLEWVATISGGGGDTYFPDSVKGRFTISRDNSKNTLYLQMNSLRAEDTAVYYCVRFGGAGYYWYFDVWGAGTLVTVSS
VL: EIVLTQSPATLSLSPGERATLSCRASKSVDDSGISFMHWFQQKPGQPPRLLIYAASNQGSGIPARFSGSGSGTDFTLTISSLEPEDFAVYFCHQTKEVPWTFGQGTKVEIKR
notes: as for B2
For the molecule B6, the dissociation constant (Kd) in assay [7] was determined as 3.37 nM.

B7: humanized anti-PD-1 antibody huC1E1-V2 (antibody, human IgG1, kappa)
heavy: not shown
light: EIVLTQSPATLSLSPGERATLSCRASKSVDDSGISFMHWFQQKPGQPPRLLIYAASNQGSGVPARFSGSGSGTDFTLTISSLEPEDFAVYFCHQTKEVPWTFGQGTKVEIKRTVAAPSVFIFPPSDEQLKSGTASVVCLLNNFYPREAKVQWKVDNALQSGNSQESVTEQDSKDSTYSLSSTLTLSKADYEKHKVYACEVTHQGLSSPVTKSFNRGEC
notes: as for B2
As to B7, the dissociation constant (Kd) in assay [7] worked out at 2.49 nM.

B8: humanized anti-PD-1 antibody huC1E1-V6 (antibody, human IgG1, kappa, V domains shown)
VH: EVQLVESGGGVVQPGRSLRLSCAASGFTFSSYLMSWVRQAPGKGLEWVATISGGGGDTYFPDSVKGRFTISRDNSKNTLYLQMNSLRAEDTAVYYCVRFGGAGYYWYFDVWGAGTLVTVSS
VL: EIVLTQSPATLSLSPGERATLSCRASKSVDDSGISFMHWFQQKPGQPPRLLIYAASNQGSGVPARFSGSGSGTDFTLTISSLEPEDFAVYYCHQTKEVPWTFGQGTKVEIKR
notes: as for B2
Take B8: the Kd in [7] was determined as 3.05 nM.

B9: humanized anti-PD-1 antibody huC1E1-V10 (antibody, human IgG1, kappa)
heavy: not shown
light: EIVLTQSPATLSLSPGERATLSCRASKSVDDSGISFMHWYQQKPGQAPRLLIYAASNQGSGIPARFSGSGSGTDFTLTISSLEPEDFAVYYCHQTKEVPWTFGQGTKVEIKRTVAAPSVFIFPPSDEQLKSGTASVVCLLNNFYPREAKVQWKVDNALQSGNSQESVTEQDSKDSTYSLSSTLTLSKADYEKHKVYACEVTHQGLSSPVTKSFNRGEC
notes: as for B2
As to B9, the Kd in assay [8] is 0.892 nM; in assay [9], 0.968 nM; in [7] it was 0.968 nM. Moreover, the half-inhibitory concentration (IC50) stood at 0.35 nM in [10] and 0.88 nM in assay [13]. Moreover, the figures for the concentration giving a half-maximal response (EC50) in [11] and in [14] were 0.34 nM and 0.44 nM, respectively. In assay [12], the “Cell-based reporter assay (EC50, nM)” value was 11.3 nM.

B10: Nivolumab (OPDIVO®) (antibody, V domains shown)
VH: QVQLVESGGGVVQPGRSLRLDCKASGITFSNSGMHWVRQAPGKGLEWVAVIWYDGSKRYYADSVKGRFTISRDNSKNTLFLQMNSLRAEDTAVYYCATNDDYWGQGTLVTVSS
VL: EIVLTQSPATLSLSPGERATLSCRASQSVSSYLAWYQQKPGQAPRLLIYDASNRATGIPARFSGSGSGTDFTLTISSLEPEDFAVYYCQQSSNWPRTFGQGTKVEIK
For B10, the 50% inhibitory concentration (IC50) in assay [15] came out at 0.38 nM; in [16], 0.41 nM; in assay [17], 0.38 nM; in [18] it was 3.79 nM; in assay [13], 0.41 nM. In addition, the EC50 in assay [11] came to 0.37 nM; in assay [2], 0.21 nM; in [19], 0.37 nM.
